Experimental data from paper PMC6360533 (Neuron, 2018).

Experiments:
SEC = biological target: the molecule itself; experiment: SEC
native gel or EMSA = biological target: the molecule itself; experiment: native gel or EMSA
SEC-MALS = biological target: the molecule itself; experiment: SEC-MALS

B1: human TMC1 (hsTMC1) fused to GFP (natural protein, UniProt Q8TDI8 1-760, looked up)
chain: MSPKKVQIKVEEKEDETEESSSEEEEEVEDKLPRRESLRPKRKRTRDVINEDDPEPEPEDEETRKAREKERRRRLKRGAEEEEIDEEELERLKAELDEKRQIIATVKCKPWKMEKKIEVLKEAKKFVSENEGALGKGKGKRWFAFKMMMAKKWAKFLRDFENFKAACVPWENKIKAIESQFGSSVASYFLFLRWMYGVNMVLFILTFSLIMLPEYLWGLPYGSLPRKTVPRAEEASAANFGVLYDFNGLAQYSVLFYGYYDNKRTIGWMNFRLPLSYFLVGIMCIGYSFLVVLKAMTKNIGDDGGGDDNTFNFSWKVFTSWDYLIGNPETADNKFNSITMNFKEAITEEKAAQVEENVHLIRFLRFLANFFVFLTLGGSGYLIFWAVKRSQEFAQQDPDTLGWWEKNEMNMVMSLLGMFCPTLFDLFAELEDYHPLIALKWLLGRIFALLLGNLYVFILALMDEINNKIEEEKLVKANITLWEANMIKAYNASFSENSTGPPFFVHPADVPRGPCWETMVGQEFVRLTVSDVLTTYVTILIGDFLRACFVRFCNYCWCWDLEYGYPSYTEFDISGNVLALIFNQGMIWMGSFFAPSLPGINILRLHTSMYFQCWAVMCCNVPEARVFKASRSNNFYLGMLLLILFLSTMPVLYMIVSLPPSFDCGPFSGKNRMFEVIGETLEHDFPSWMAKILRQLSNPGLVIAVILVMVLAIYYLNATAKGQKAANLDLKKKMKMQALENKMRNKKMAAARAAAAAGRQ
stoichiometry N (SEC): 2

B2: purified human TMC1 (hsTMC1) reconstituted into amphipols (natural protein, UniProt Q8TDI8 1-760, looked up)
chain: MSPKKVQIKVEEKEDETEESSSEEEEEVEDKLPRRESLRPKRKRTRDVINEDDPEPEPEDEETRKAREKERRRRLKRGAEEEEIDEEELERLKAELDEKRQIIATVKCKPWKMEKKIEVLKEAKKFVSENEGALGKGKGKRWFAFKMMMAKKWAKFLRDFENFKAACVPWENKIKAIESQFGSSVASYFLFLRWMYGVNMVLFILTFSLIMLPEYLWGLPYGSLPRKTVPRAEEASAANFGVLYDFNGLAQYSVLFYGYYDNKRTIGWMNFRLPLSYFLVGIMCIGYSFLVVLKAMTKNIGDDGGGDDNTFNFSWKVFTSWDYLIGNPETADNKFNSITMNFKEAITEEKAAQVEENVHLIRFLRFLANFFVFLTLGGSGYLIFWAVKRSQEFAQQDPDTLGWWEKNEMNMVMSLLGMFCPTLFDLFAELEDYHPLIALKWLLGRIFALLLGNLYVFILALMDEINNKIEEEKLVKANITLWEANMIKAYNASFSENSTGPPFFVHPADVPRGPCWETMVGQEFVRLTVSDVLTTYVTILIGDFLRACFVRFCNYCWCWDLEYGYPSYTEFDISGNVLALIFNQGMIWMGSFFAPSLPGINILRLHTSMYFQCWAVMCCNVPEARVFKASRSNNFYLGMLLLILFLSTMPVLYMIVSLPPSFDCGPFSGKNRMFEVIGETLEHDFPSWMAKILRQLSNPGLVIAVILVMVLAIYYLNATAKGQKAANLDLKKKMKMQALENKMRNKKMAAARAAAAAGRQ
stoichiometry N (native gel or EMSA): 2

B3: purified mouse TMC1 (mmTMC1) reconstituted into amphipols (natural protein, UniProt Q8R4P5 1-757, looked up)
chain: MLQIQVEEKEEDTEESSSEEEEDKLPRRESLRPKRKRTRDVINEDDPEPEPEDEETRKAREKERRRRLRRGAEEEEEIDEEELERLKALLDENRQMIATVKCKPWKMEKKIEVLKEAKKFVSENEGALGKGKGKKWFAFKMMMAKKWAKFLRDFENFKAACVPWENKIKAIESQFGSSVASYFLFLRWMYGVNMVLFVLTFSLIMLPEYLWGLPYGSLPRKTVPRAEEASAANFGVLYDFNGLAQYSVLFYGYYDNKRTIGWLNFRLPLSYFLVGIMCIGYSFLVVLKAMTKNIGDDGGGDDNTFNFSWKVFCSWDYLIGNPETADNKFNSITMNFKEAIIEERAAQVEENIHLIRFLRFLANFFVFLTLGASGYLIFWAVKRSQEFAQQDPDTLGWWEKNEMNMVMSLLGMFCPTLFDLFAELEDYHPLIALKWLLGRIFALLLGNLYVFILALMDEINNKIEEEKLVKANITLWEANMIKAYNESLSGLSGNTTGAPFFVHPADVPRGPCWETMVGQEFVRLTVSDVLTTYVTILIGDFLRACFVRFCNYCWCWDLEYGYPSYTEFDISGNVLALIFNQGMIWMGSFFAPSLPGINILRLHTSMYFQCWAVMCCNVPEARVFKASRSNNFYLGMLLLILFLSTMPVLYMIVSLPPSFDCGPFSGKNRMFEVIGETLEHDFPSWMAKILRQLSNPGLVIAVILVMVLTIYYLNATAKGQKAANLDLKKKMKQQALENKMRNKKMAAARAAAAAGGQ
stoichiometry N (SEC-MALS): 2
